In publication PMC12876850 (Cell Death & Disease, 2026):

Molecular target: T1, FLAG-tagged GSK3β (UniProt P49841 1-420)
T1 construct: glycogen synthase kinase-3β, expressed from a plasmid; also called FLAG-GSK3β; source: HEK-293, co-transfected, in lysate
Experiment: co-IP; HEK-293 co-transfected with HA-TGase 2 and FLAG-GSK3β at increasing TGase 2:GSK3β plasmid ratios; TGase 2-GSK3β and GSK3β-β-catenin association followed
Conditions: partners not purified

T1 sequence (P49841 whole entry): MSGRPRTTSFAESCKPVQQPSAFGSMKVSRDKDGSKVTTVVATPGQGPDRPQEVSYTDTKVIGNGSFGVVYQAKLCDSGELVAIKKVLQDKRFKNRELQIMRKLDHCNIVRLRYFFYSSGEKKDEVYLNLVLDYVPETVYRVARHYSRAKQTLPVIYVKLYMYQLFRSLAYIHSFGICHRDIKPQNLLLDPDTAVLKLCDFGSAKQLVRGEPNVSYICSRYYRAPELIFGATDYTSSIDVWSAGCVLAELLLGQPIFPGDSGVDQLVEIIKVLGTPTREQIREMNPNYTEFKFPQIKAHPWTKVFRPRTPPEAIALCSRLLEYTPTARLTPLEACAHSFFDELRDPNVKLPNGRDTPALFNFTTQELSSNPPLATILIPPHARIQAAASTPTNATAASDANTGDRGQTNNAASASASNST

B1: HA-tagged wild-type TGase 2 (enzyme, UniProt P21980 1-687, looked up)
chain: MAEELVLERCDLELETNGRDHHTADLCREKLVVRRGQPFWLTLHFEGRNYEASVDSLTFSVVTGPAPSQEAGTKARFPLRDAVEEGDWTATVVDQQDCTLSLQLTTPANAPIGLYRLSLEASTGYQGSSFVLGHFILLFNAWCPADAVYLDSEEERQEYVLTQQGFIYQGSAKFIKNIPWNFGQFEDGILDICLILLDVNPKFLKNAGRDCSRRSSPVYVGRVVSGMVNCNDDQGVLLGRWDNNYGDGVSPMSWIGSVDILRRWKNHGCQRVKYGQCWVFAAVACTVLRCLGIPTRVVTNYNSAHDQNSNLLIEYFRNEFGEIQGDKSEMIWNFHCWVESWMTRPDLQPGYEGWQALDPTPQEKSEGTYCCGPVPVRAIKEGDLSTKYDAPFVFAEVNADVVDWIQQDDGSVHKSINRSLIVGLKISTKSVGRDEREDITHTYKYPEGSSEEREAFTRANHLNKLAEKEETGMAMRIRVGQSMNMGSDFDVFAHITNNTAEEYVCRLLLCARTVSYNGILGPECGTKYLLNLNLEPFSEKSVPLCILYEKYRDCLTESNLIKVRALLVEPVINSYLLAERDLYLENPEIKIRILGEPKQKRKLVAEVSLQNPLPVALEGCTFTVEGAGLTEEQKTVEIPDPVEAGEEVKVRMDLLPLHMGLHKLVVNFESDKLKAVKGFRNVIIGPA
notes: transglutaminase 2, wild type, expressed from a TGM2 plasmid; also called HA-tagged wild-type TGM2; HA-tagged TGase 2; source: HEK-293, co-transfected, in lysate
For B1, the “percent decrease of the interaction with GSK3β (of β-catenin, by the legend) at TGase 2:GSK3β plasmid ratio 1:1” value was 52% and the “percent decrease of the interaction with GSK3β (of β-catenin, by the legend) at TGase 2:GSK3β plasmid ratio 1:2” value was 45%.
